Experiments:
[1] = target: RMF peptide (…)/HLA-A0201 complex on the cell surface (human); assay: flow cytometry, T2 cells pulsed with WT1 (RMF) peptide 50 ug/ml, control mAb at 1 (ug/ml by paragraph 199); secondary alone (T2-WT1-2AB) prints 18
[2] = target: RMF peptide (…)/HLA-A0201 complex on the cell surface (human); assay: flow cytometry, T2 cells pulsed with WT1 (RMF) peptide 50 ug/ml, control mAb at 10 (ug/ml by paragraph 199); secondary alone (T2-WT1-2AB) prints 18
[3] = target: RMF peptide (…)/HLA-A0201 complex on the cell surface (human); assay: flow cytometry, T2 cells pulsed with WT1 (RMF) peptide 50 ug/ml, control mAb at 0.1 (ug/ml by paragraph 199); secondary alone (T2-WT1-2AB) prints 18
[4] = target: RMF peptide (…)/HLA-A0201 complex on the cell surface (human); assay: flow cytometry, T2 cells pulsed with WT1 (RMF) peptide 50 ug/ml, control mAb at 0.01 (ug/ml by paragraph 199); secondary alone (T2-WT1-2AB) prints 18

fluorescence value (FL2-H: PE; statistic not given) [1]: 37.9 | fluorescence value (FL2-H: PE; statistic not given) [2]: 31.1 | fluorescence value (FL2-H: PE; statistic not given) [3]: 29.5 | fluorescence value (FL2-H: PE; statistic not given) [4]: 31.8
Substance: Isotype control human IgG1 (antibody)

— patent publication US20210163624A1
